Source: US6100032, “Human Smad3 and Smad4 are sequence-specific transcription activators” (Johns Hopkins University)

B1: Vg probe (dsDNA)
DNA 1: TTTGTGCTTGGCTGCCGTCGCGATTCGACAACTTTGG
DNA 2: CCAAAGTTGTCGAATCGCGACGGCAGCCAAGCACAAA
B2: SBE probe (26 bp) (dsDNA)
DNA 1: GGAGTATGTCTAGACTGACAATGTAC
DNA 2: GTACATTGTCAGTCTAGACATACTCC

Legend:
GST-Smad2/MH1 [1] = target: T1, GST-Smad2/MH1 (Homo sapiens, UniProt Q15796 Q15796:1-242); assay: EMSA; data not shown; conditions: tags: GST N-terminal (pGEX2TK, Pharmacia); label: 32P
Description: To evaluate whether the analogous domain of human Smad proteins could bind DNA, GST fusion proteins containing the MH1 domains of Smads 2, 3, and 4 were constructed and expressed in $E. coli$. Electrophoresis mobility shift assays (EMSA) were performed using the purified proteins and labeled oligonucleotides containing the optimal sequence from Vg, essentially as described by Kim et al ). […] However, the binding was relatively inefficient, typically resulting in shifts of less than 5% of the input Vg probe. Several experimental manipulations were employed to increase the efficiency of binding (such as variations of cation, salt concentration, competitor, and other components of the binding buffer) without success.
DNA-binding assays were performed essentially as described except that poly (dI-dC), 6 ug/ml, was used as the only competitor and 2% NP-40 was included in the reaction mix. For binding to PCR products derived from clones (e.g., FIG. 1), 1.0–0.5 ug protein […] and 50 ng of DNA end-labeled to 2×10^6 dpm/ug, was used. For binding to oligonucleotides, 0.3–0.5 ug of protein (~0.4 uM final concentration) and 0.5 ng of DNA end-labeled to 2×10^8 dpm/ug, was used. […] Quantitation of binding was performed using an Instant Imager (Packard).

GST-Smad4/MH1 = GST-Smad4/MH1 (Homo sapiens, UniProt Q13485 Q13485:1-276); assay: EMSA; bound to same extent as longer selected-clone probes; poly(dI-dC), 2% NP-40; conditions: tags: GST N-terminal (pGEX2TK, Pharmacia); label: 32P
Description: (§1) (FIG. 2B) The ^32P-labeled SBE probe was incubated with 0.6 ug of a fusion protein containing either the MH1 domain of Smad4 (lane 1) or 0.4–1.6 ug of a fusion protein containing FL Smad4 (lanes 2–5).
(§2) DNA-binding assays were performed essentially as described except that poly (dI-dC), 6 ug/ml, was used as the only competitor and 2% NP-40 was included in the reaction mix. For binding to PCR products derived from clones (e.g., FIG. 1), 1.0–0.5 ug protein […] and 50 ng of DNA end-labeled to 2×10^6 dpm/ug, was used. For binding to oligonucleotides, 0.3–0.5 ug of protein (~0.4 uM final concentration) and 0.5 ng of DNA end-labeled to 2×10^8 dpm/ug, was used. Specificity of binding was checked by competition with unlabeled SBE oligonucleotides and lack of competition with irrelevant oligonucleotides. Quantitation of binding was performed using an Instant Imager (Packard).

GST-Smad3/MH1 = GST-Smad3/MH1 (Homo sapiens, UniProt P84022 P84022:1-200); assay: as above; conditions: tags: GST N-terminal (pGEX2TK, Pharmacia); label: 32P
Description: as §1, §2

GST-Smad2/MH1 [2] = target: T1, GST-Smad2/MH1; assay: EMSA; did not bind the palindrome (data not shown); exact probe not stated; conditions: tags: GST N-terminal (pGEX2TK, Pharmacia); label: 32P
GST-Smad4/FL = GST-Smad4/FL (Homo sapiens, UniProt Q13485 Q13485:1-552); assay: EMSA; full-length Smad4; conditions: tags: GST N-terminal (pGEX2TK, Pharmacia); label: 32P
Description: as §1, §2

His6-Smad4 full length = His6-Smad4 full length (Homo sapiens, UniProt Q13485 Q13485:1-552); assay: EMSA; full-length Smad4; conditions: tags: His6 (pET33b, Novagen); label: 32P
Description: as §1, §2

Smad4 (non-fusion) = Smad4 (non-fusion) (Homo sapiens, UniProt Q13485 Q13485:1-552); assay: EMSA; data not shown; conditions: tags: none; rabbit reticulocyte lysate; label: 32P
Chain of Smad4 (non-fusion) (Q13485 whole entry, the tested form may be a part, one chain of several): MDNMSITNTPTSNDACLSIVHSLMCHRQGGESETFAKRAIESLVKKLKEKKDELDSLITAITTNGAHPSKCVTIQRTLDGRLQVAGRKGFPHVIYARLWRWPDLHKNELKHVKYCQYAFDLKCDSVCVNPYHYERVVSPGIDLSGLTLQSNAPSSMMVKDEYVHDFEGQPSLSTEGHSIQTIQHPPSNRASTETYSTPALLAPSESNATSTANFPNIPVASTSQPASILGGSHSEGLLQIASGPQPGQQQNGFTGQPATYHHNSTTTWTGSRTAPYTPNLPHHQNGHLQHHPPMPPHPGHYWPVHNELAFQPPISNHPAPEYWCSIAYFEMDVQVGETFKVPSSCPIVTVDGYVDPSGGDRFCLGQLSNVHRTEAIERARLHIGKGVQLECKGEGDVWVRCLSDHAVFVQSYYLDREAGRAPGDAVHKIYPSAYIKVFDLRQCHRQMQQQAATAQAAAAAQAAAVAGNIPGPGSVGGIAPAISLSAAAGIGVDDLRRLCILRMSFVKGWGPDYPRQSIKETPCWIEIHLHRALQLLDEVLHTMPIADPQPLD

T1 sequence (Q15796 1-242, one chain of several): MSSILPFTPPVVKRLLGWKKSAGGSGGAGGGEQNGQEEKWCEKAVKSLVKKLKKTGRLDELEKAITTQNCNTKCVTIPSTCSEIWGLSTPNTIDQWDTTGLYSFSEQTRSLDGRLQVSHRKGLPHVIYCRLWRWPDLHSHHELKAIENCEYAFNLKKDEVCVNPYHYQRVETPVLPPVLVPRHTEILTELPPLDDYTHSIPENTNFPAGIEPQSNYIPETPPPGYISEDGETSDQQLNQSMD
Chain of GST-Smad4/MH1 (Q13485 1-276, one chain of several): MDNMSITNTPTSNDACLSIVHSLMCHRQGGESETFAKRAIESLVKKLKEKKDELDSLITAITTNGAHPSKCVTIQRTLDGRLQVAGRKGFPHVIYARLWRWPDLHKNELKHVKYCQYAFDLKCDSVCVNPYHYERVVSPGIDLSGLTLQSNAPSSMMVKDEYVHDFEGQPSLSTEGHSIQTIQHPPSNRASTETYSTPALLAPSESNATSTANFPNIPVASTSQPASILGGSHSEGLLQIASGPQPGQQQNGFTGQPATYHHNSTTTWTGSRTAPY
Chain of GST-Smad4/FL (Q13485 whole entry, one chain of several): as the sequence (Q13485 whole entry, the tested form may be a part, one chain of several) above
Chain of His6-Smad4 full length (Q13485 whole entry, one chain of several): as the sequence (Q13485 whole entry, the tested form may be a part, one chain of several) above
Chain of GST-Smad3/MH1 (P84022 1-200, one chain of several): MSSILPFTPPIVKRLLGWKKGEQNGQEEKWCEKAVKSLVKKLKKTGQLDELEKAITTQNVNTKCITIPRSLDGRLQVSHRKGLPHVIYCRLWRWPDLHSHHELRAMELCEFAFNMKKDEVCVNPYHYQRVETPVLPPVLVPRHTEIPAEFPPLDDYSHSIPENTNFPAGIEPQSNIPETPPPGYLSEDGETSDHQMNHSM

| Binder | binding result (GST-Smad2/MH1 [1]) | binding result (GST-Smad4/MH1) | binding result (GST-Smad3/MH1) | binding result (GST-Smad2/MH1 [2]) | binding result (GST-Smad4/FL) | binding result (His6-Smad4 full length) | binding result (Smad4 (non-fusion)) |
| --- | --- | --- | --- | --- | --- | --- | --- |
| B1 | no binding |  |  |  |  |  |  |
| B2 |  | binds | binds | no binding | binds | binds | binds |
